Experiment [1] deals with human CD33 antigen (human) (UniProt P20138). The experiment can be described thus: immunoreactivity of the radiolabeled HuM195-DOTA conjugate, Preparation 2; format not described.
The target is the same in experiment [2]. The experiment in a line: immunoreactivity of the radiolabeled HuM195-DOTA conjugate, Preparation 1; format not described.

“^225Ac-HuM195 (HuM195-DOTA conjugate labeled with thorium cow-generated ^225Ac) (antibody)”: the Immunoreactivity (%) in experiment [1] came to 82%; in experiment [2], 72.2%.

B1: ^225/7Ac-HuM195 (HuM195-DOTA conjugate labeled with linac/accelerator-generated ^225Ac containing a molar excess of ^227Ac) (antibody, INN chains, looked up, V domains shown)
VH: QVQLVQSGAEVKKPGSSVKVSCKASGYTFTDYNMHWVRQAPGQGLEWIGYIYPYNGGTGYNQKFKSKATITADESTNTAYMELSSLRSEDTAVYYCARGRPAMDYWGQGTLVTVSS
VL: DIQMTQSPSSLSASVGDRVTITCRASESVDNYGISFMNWFQQKPGKAPKLLIYAASNQGSGVPSRFSGSGSGTDFTLTISSLQPDDFATYYCQQSKEVPWTFGQGTKVEIK
modifications: DOTA conjugate labelled with 225Ac/227Ac
Regarding B1, the Immunoreactivity (%) in experiment [1] turned out to be 83%; in experiment [2], 65.4%.

The record behind these values is US20220125962A1.
